Measurements published in PMC7820937.
Where two headings read alike, the source gives them in different places.

Experiments:
Assay in all cases: ELISA
[1] = target: C4BP α-chain deletant ΔCCP5 (human) (UniProt P04003)
[2] = target: C4BP α-chain deletant ΔCCP4 (human) (UniProt P04003)
[3] = target: C4BP α-chain deletant ΔCCP5 (human) (UniProt P04003); remark: listed apart in the source
[4] = target: C4BP α-chain deletant ΔCCP1 (human) (UniProt P04003)
[5] = target: C4BP α-chain deletant ΔCCP7 (human) (UniProt P04003)
[6] = target: C4BP α-chain deletant ΔCCP6 (human) (UniProt P04003)
[7] = target: C4BP α-chain deletant ΔCCP3 (human) (UniProt P04003)
[8] = target: C4BP α-chain deletant ΔCCP2 (human) (UniProt P04003)
[9] = target: C4BP α-chain deletant ΔCCP4 (human) (UniProt P04003); remark: listed apart in the source
[10] = target: C4BP α-chain deletant ΔCCP8 (human) (UniProt P04003)

Substance: Influenza A virus A/England/2009 (H1N1), whole virus particles (complex)
- percent loss of binding against full-length C4BP [1]: 67%
- percent loss of binding against full-length C4BP [2]: 67%
- percent loss of binding against full-length C4BP [3]: 60%
- percent loss of binding against full-length C4BP [4]: 20%
- percent loss of binding against full-length C4BP [5]: 49%
- percent increase of binding against full-length C4BP [6]: 10%
- percent increase of binding against full-length C4BP [7]: 10%
- percent loss of binding against full-length C4BP [8]: 20%
- percent loss of binding against full-length C4BP [9]: 60%
- percent loss of binding against full-length C4BP [10]: 75%

Substance: Influenza A virus A/HK/99 (H3N2), whole virus particles (complex)
- percent loss of binding against full-length C4BP [3]: 80%
- percent loss of binding against full-length C4BP [4]: 80%
- percent loss of binding against full-length C4BP [5]: 62%
- percent increase of binding against full-length C4BP [6]: 10%
- percent increase of binding against full-length C4BP [7]: 10%
- percent loss of binding against full-length C4BP [8]: 80%
- percent loss of binding against full-length C4BP [9]: 80%
- percent loss of binding against full-length C4BP [10]: 75%
